In paper PMC13184332:

T1: His-GFP-KERP2Δ185-239 (Entamoeba histolytica, UniProt C4LZX9 1-184, del185-239)
T1 sequence: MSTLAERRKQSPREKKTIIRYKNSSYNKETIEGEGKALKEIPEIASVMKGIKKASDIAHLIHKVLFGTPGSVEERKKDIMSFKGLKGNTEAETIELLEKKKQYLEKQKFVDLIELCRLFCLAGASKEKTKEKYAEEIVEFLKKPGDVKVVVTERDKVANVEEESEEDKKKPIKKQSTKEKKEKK

T2: His-GFP-KERP2 (Entamoeba histolytica, UniProt C4LZX9 1-239)
T2 sequence: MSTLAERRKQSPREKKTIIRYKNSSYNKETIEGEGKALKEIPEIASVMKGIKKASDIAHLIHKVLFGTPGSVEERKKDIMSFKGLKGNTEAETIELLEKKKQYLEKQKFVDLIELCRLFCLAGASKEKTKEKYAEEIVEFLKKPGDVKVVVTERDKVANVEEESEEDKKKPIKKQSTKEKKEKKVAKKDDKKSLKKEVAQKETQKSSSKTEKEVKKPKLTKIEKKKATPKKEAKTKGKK


Tests used:
His-GFP-KERP2Δ185-239 = target: T1, His-GFP-KERP2Δ185-239; experiment: EMSA
His-GFP-KERP2 = target: T2, His-GFP-KERP2; experiment: EMSA

Binder	binding result (His-GFP-KERP2Δ185-239)	binding result (His-GFP-KERP2)
dsAT (dsDNA) DNA 1: TTAATTAAATAAATTAAAAAATTTTTTAATTAAATTAATTAATAAATTAAAATAAATTTTTTAATTAAATTTTAA DNA 2: TTAAAATTTAATTAAAAAATTTATTTTAATTTATTAATTAATTTAATTAAAAAATTTTTTAATTTATTTAATTAA	binds	binds
ssAT (ssDNA) DNA: TTAATTAAATAAATTAAAAAATTTTTTAATTAAATTAATTAATAAATTAAAATAAATTTTTTAATTAAATTTTAA	binds	binds
dsGC (dsDNA) DNA 1: CGGGGCGCCGCGGGGCCCCCGGCCCGCCCCGCGGGGCGCCGGGCCCCGCC DNA 2: GGCGGGGCCCGGCGCCCCGCGGGGCGGGCCGGGGGCCCCGCGGCGCCCCG	no binding	no binding
